Publication PMC9600255

Target: His6-tagged cytokeratin-19 (Novus Biologicals) (UniProt P08727)
Experiment: MST; His6-cytokeratin-19 labelled with RED-tris-NTA 2nd Generation dye, kept at 25 nM; BspC full-length or V-domain titrated from 5 uM to 0.153 nM; premium capillaries, Monolith NT.115 Pico, 20% excitation power

UniProt P08727, sequence (P08727 whole entry): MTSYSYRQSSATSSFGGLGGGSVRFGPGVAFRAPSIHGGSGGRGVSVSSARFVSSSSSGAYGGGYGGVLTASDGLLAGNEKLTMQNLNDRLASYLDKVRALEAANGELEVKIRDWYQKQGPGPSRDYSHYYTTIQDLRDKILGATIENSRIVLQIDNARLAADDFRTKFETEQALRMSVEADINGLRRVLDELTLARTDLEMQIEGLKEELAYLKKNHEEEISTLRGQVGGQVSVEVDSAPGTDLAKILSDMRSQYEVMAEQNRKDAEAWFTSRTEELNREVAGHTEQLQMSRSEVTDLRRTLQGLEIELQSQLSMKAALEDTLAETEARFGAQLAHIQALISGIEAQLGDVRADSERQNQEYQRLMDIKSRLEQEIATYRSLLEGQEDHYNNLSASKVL

Substance: BspC V-domain protein (recombinant BspC consisting of only the variable domain) (domain or fragment)
- Kd: 0.362 µM

Substance: full-length BspC protein (Group B streptococcal surface protein C) (natural protein)
- Kd: 0.0329 µM
